# B1: β2Btubwt (ssRNA)
# RNA: GUUCCCCAGGCCAAGCAGGUUAGGGAAAGCUGAGAUGAAAGGAGGGGGUGGGGGGGCUUAAUCUGUGAAAAUACCUUGGCAGUUGAA
# Target: APC (full-length; APC-TMR when labeled) (Mus musculus, UniProt Q61315 1-2845)
# Test: single-molecule TIRF-M co-diffusion on microtubules
# APC (full-length; APC-TMR when labeled), sequence (Q61315 whole entry, the tested form may be a part): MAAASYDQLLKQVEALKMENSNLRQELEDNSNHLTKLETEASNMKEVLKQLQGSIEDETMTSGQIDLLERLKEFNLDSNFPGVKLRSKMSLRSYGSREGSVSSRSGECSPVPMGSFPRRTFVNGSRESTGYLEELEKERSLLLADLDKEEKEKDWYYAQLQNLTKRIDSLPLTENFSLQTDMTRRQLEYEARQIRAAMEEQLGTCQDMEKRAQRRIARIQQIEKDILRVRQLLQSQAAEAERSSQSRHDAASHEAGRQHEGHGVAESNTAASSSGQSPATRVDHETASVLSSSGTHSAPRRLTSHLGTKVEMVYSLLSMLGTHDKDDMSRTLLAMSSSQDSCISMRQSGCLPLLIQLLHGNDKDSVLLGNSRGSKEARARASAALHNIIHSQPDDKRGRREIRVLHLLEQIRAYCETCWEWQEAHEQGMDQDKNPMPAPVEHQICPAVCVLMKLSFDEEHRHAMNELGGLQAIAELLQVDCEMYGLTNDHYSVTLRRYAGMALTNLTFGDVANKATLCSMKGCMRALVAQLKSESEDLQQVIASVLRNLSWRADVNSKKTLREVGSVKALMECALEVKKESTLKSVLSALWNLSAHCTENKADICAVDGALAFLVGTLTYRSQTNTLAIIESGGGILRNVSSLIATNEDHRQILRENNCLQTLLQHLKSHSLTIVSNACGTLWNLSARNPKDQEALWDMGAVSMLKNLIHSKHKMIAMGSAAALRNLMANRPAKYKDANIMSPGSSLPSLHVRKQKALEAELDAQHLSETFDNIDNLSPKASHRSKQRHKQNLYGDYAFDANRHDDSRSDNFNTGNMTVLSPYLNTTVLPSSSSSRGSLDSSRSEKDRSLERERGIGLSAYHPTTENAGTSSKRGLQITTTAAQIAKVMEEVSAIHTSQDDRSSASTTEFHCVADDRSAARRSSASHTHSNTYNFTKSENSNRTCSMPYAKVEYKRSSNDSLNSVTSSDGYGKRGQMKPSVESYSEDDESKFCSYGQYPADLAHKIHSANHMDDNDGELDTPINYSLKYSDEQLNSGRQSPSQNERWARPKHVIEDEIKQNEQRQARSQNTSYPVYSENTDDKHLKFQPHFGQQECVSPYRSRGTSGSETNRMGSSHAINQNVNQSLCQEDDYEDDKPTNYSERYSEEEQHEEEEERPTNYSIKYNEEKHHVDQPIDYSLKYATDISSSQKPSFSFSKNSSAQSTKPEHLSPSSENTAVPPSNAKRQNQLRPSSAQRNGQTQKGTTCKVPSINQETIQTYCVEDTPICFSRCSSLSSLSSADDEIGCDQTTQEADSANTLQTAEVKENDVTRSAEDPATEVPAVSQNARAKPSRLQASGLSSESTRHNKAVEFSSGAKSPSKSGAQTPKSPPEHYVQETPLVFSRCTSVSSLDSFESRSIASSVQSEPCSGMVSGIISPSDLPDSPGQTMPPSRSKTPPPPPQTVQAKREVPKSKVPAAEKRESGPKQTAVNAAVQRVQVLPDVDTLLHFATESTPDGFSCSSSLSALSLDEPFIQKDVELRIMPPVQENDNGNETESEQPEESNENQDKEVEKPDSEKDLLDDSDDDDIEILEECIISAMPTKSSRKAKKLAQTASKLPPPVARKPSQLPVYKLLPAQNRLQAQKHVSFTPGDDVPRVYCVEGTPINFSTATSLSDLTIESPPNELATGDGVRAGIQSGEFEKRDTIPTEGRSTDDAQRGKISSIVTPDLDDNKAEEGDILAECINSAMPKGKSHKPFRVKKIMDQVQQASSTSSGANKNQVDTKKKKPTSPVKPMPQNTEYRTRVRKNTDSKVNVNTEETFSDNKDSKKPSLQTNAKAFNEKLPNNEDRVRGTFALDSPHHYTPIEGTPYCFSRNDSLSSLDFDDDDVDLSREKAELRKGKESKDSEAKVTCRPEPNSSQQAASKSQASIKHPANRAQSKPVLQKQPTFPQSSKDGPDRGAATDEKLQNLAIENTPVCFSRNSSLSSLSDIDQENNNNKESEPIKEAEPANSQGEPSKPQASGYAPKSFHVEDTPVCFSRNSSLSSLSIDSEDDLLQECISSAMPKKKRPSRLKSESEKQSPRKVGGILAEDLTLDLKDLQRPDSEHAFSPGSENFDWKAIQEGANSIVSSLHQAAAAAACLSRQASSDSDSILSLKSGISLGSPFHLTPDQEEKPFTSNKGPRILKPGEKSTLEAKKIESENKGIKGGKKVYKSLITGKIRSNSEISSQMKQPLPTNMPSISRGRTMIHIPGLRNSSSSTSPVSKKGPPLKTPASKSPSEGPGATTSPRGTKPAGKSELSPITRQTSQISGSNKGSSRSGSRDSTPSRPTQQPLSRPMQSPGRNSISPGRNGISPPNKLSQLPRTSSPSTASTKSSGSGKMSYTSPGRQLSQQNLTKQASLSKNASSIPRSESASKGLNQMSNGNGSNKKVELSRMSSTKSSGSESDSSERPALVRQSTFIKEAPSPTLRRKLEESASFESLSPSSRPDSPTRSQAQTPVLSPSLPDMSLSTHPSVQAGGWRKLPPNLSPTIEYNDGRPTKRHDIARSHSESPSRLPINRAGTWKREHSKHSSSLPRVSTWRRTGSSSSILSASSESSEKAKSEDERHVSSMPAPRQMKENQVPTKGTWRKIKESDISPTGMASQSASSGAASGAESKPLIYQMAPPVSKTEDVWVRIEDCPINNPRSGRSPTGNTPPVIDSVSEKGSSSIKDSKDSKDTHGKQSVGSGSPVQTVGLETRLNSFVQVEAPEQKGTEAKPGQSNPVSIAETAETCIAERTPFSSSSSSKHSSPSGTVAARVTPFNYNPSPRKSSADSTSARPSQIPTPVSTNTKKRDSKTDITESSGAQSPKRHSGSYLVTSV
binder,measurement,value
B1,binding result,binds
